assay: yeast display, Sf9 membrane polyspecificity reagent, FACS + sequencing; frameworks hold sequencing errors
In short: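 Nanobodies from a synthetic yeast display library (Saccharomyces cerevisiae BJ5465), induced 36–48 hours with galactose, were stained 1 hour at 4 °C with 10% biotinylated, detergent-solubilized Sf9 membrane reagent, enriched on streptavidin microbeads, then FACS-sorted. Anti-HA (expression) and streptavidin (reagent binding) fluorescence set low and high (top ~1%) gates. Polyreactivity labels come from the gate of origin. Genes were colony-PCR amplified, MiSeq 2 × 250 sequenced and filtered by CDR length.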

Row | Sequence | polyreactivity (PSR sort gate)
1 | QVQLVESGGGLVQAGGSLRLSCAASGSIFFSNTMGWYRQAPGKERELVASITGDSSTNYADSVKGRFTISRDNAKNTVYLQMNSLKPEDTAVYYCNAGRVLRYVGHYSGDLEYWGQGTQVTVSS | low polyreactivity
2 | QVQLVESGGGLVQAGGSLRLSCAASGRIFYRYTMGWYRQAPGKERELVAVIRSGGRTYYADSVKGRFSISRDNAKNTLSLQMNSLKPEDTSVYYCATLVRVLTLRSDLNLYGYWGQGTQVTVSS | high polyreactivity
3 | QVQLVESGGGLVQAGGSLRLSCAASGIIIRYYAMGWYRQAPGKERELVAAISTSGGRTYYADSVKGRFTISRDNAKNPVYLQMNSLKPEDTAVYYCAARPGSWYPSVPSYNYWGQGTQVTVSW | low polyreactivity
4 | QVQLVESGGGLVQAGGSLRLSCAASGFIFPYNTMGWYRQAPGTERELVAAIDSGGSTNYADSVKGRFTISRDNAKNTVDLQMNSLKPEDTAVYYCAADDPGSWWVGLLLTGVDDDYWGQGTQVTVSS | low polyreactivity
5 | QVQLVESGGGLVQAGGSLRLSCAASGYTSYTYTMGWYRQAPGKDRELVAAISRRSDSTYSDSVKGRVTISRDNAKNSVYLQMNSLKPEDTAVYYCAAVRVSYRSLSKSYYWGQGTQVTVSS | high polyreactivity
6 | QVQLVESGGGLVQAGGSLRLTCAASGSTFGWYTKGWYRQAPGKERELVAAISSGGSTYYADSVKGRFTISRDNAKNTVYLQMNSLKPEDTAVYYCNAKVPSSYSYYSYYEYDYWGQGTQVTVSS | low polyreactivity
7 | QVQLVESGGGLVQAGGSLRLSCAASGRTFRFYAMGWYRQAPGKEREFVAAISRSVGSTYYADSVKGRFTISRDNAKNTVDLQMNSLKPEDTAVYYCNADYRSRYVEYDYWGQGTQVTVSS | high polyreactivity
8 | QVQLLESGGGLVQAGGSLRLSCASSGFTFGWYAMGWYRPAPGKERDLVAAISYSGGSTYYADSVKGRFTISRDNAKNTVYLQMNSLKPEDTAVYYCAAKARRPYSYHPYDYWGQGTQVTVSS | high polyreactivity
9 | QVQLVESGGGLFQAGGSLRLSFAASGIIFPYNLMGWYRQAPGKERELVAAITRGAASTYYADSVKGRFTISRDHEKNTVYLQMNSLKPEDTAVYFCNADGTWRTYNFWGQGTQVTVSS | high polyreactivity
10 | QVQLVESGGGLVQAGGSLRLSCAASGRIFTGNVMGWYRQAPGKERELVAAISVSGGRTYYADSVKGRFTISRDNAKNNVYLQMNSLKPEDTAVYYCNARFSRVWYGGDYWGQGTQVTVSS | high polyreactivity
11 | QVQLVESGGGLVQAGGSLRLSCAASGRTFAYNAMGWYRQAPGKERELVAANTDSDGNTNYADSVKRRFTISRDNAKNTVYVLLNSLIPEDTAVDYCAADYIILVHVTRGFGYEYWGQGTQVTVSS | low polyreactivity
12 | QVQLVESGGGLVQAGGSLRLSCAASGITFEYYAMGWYRPAPGKERELVAAIDTGGSTNYADSVKGRFTISRDNAKNTVYLQMNSLKPEDTAVYSCAADWSWWDGEDDHFEYDYWGQGTQVTVSS | low polyreactivity
13 | QVQLVESGGGLVKAGGSLRLSCAASGFTFPQYAMGWYRQAPGKERELVAAISKRSVGTRYADSVKGRFTISRDNAKNTLYLQMNSLKPEDTAVYYCNKYGQVPGYFSLDYWGQGTQVTVSS | high polyreactivity
14 | QDQLVESGGGLVQAGGSLRLSCAASGFNFRYYAMGWYRQAPGKERELVAAISSGGRTSYADSVKGRFTISRDNAKNTVYLQMNSLKPEDTAVYYCAADRWRGLFYYGNDYWGQGTQVTVSS | high polyreactivity
15 | QVQLVESGGGLVQAGGSLRLSCAASGFIFDHNAMGWYRQAPGKERELVAAISGSGGSTYYADSVKGRFTISRDNAKNTVYLQMNSLKPEDTAVYYCNALKRTRLVRYYYWGQGTQVNVSS | high polyreactivity
16 | QVQLVESGGGLVQAGGSLRLSCAASGFTFGYYGMGWYRQAPGKVRELVAAINWSGVNTNYADSVKGRFTISRDNAKNTVYLQMNSLKPEDTAVYYCAADAGYDGYGYWGQGTQVTVSS | low polyreactivity
17 | QFQLVESGGGLVQAGGSLRLSCAASGGIFTDYTMGWYRQAPGKERELVAAITWTGGSTYYADSVKGRFTISRDNAKNTVYLQMNILKPEDTAVYYCAADDYWVNLDYWGQGTQVTVSS | low polyreactivity
18 | QVQHVESGGGLVQAGGSLRLSCAASGSIFYVNAMGWYRQAPGKERELVAAITRDGSTNYADSVKGRFTISRDNAKNTVYLQMNSLKPEDTAVYYCAADFVRYIDREDYWGQGTQVTVSS | low polyreactivity
19 | QVQLVESGGGLVQAGGSLRLSCAASGSISVPYGMGWYRQAPGKERELVAAITGGSTNYADSVKGRFTISRDNAKNTVYLQMNSLKPEDTAVYYCAADVYWYYGAPELWYRYDYWGQGTQVTVSS | low polyreactivity
20 | QVQLVESGGGLVQAGGSLRLSCAASGSTFEYNAMGWYRQAPGKERELVASSTNYADSVKGRFTISRDNAKNTVYLQMNSLKPEDTAVYYFAREQGVNRNHDYWGQGTQVTVSS | low polyreactivity
21 | QFQLVESRGGLVQAGGSLRLSCAASGSIFGSNAMGLYRQAPAKERELVAANSGSGGSTNYADSVKGRLTLSRDIAQNTVYLHMNSLKPEDTAVYYCAVPSKATGSASTSYGIFDSWGQGTQVTVSS | low polyreactivity
22 | QVQLVESGGGLVQAGGSLRLSCAASGSIFNINAMGWYRQAPGKERELVAAITTSGGRTYYADSVKGRFTISRDNAKNTVYLQMNSLKPEVTAVYYCATSHYGSTGNYWGQGTQVTVSS | low polyreactivity

Row | Sequence | polyreactivity (PSR sort gate)
23 | QVQHVESGGGLVQAGGSLRLSCAASGRTFYYNDMGWSRQAPGKERELVAAISWSGVSTSYADSVKGRFTISRDNAKNTVYLQMNSLKPEDTAVYYCAADNDGWYFHITEYDYWGQGTQVTVSS | low polyreactivity
24 | QVQIVESGGGLVQAGGSLRLSCAASGRIFDSYAMGWYRQAPGKERELVAAISQNSGSTYYADSVKGRFTISRDNEKNTVYLQMNSLKPEDTAVYYCAATRKTKRFGYWGQGTQVTVSS | high polyreactivity
25 | QVQLVESGGGLVQAGGSLRLSCAASGRTFGYYAMGWYRQAPGKERELVAAISNSGGRTYYADSLKGRFTISRDNAKNTVYLQMNSLKPEDTAVYYCAAVVSYRFDYWGQGTQVTVSS | high polyreactivity
26 | QVQLVESGGGLVQAGGSLRLSCAASGSIFTTYTMGWYRQAPGKERELVAAITSSSGSTYYADSVKGRFTISRDHAKNTVYLQMNSLKPEDTAVYYCNATYSAAVDYWGQGTQVTVSS | low polyreactivity
27 | QVQLVESGGGLVQAGGSLRLSCAASGSIFYGNAMGWYRQAPGKERELVAAISKRGGSTYYADSVKGRFTISRDNAKNTVYLQMNSLIPEDTAVYYCDKGSAGHTEYYYWGQGTQVTVSS | high polyreactivity
28 | QLQLVESGGGLVQAGGSLRLSCAASGSTFREYAMGWYRQAPGKERELVAAISSGDSTNYADSVKGRFTISRDNAKNTVYLQMNSLKPEDTSVYYCAADAQGAAAVQNDYWGQGTQVTVSS | low polyreactivity
29 | QVQLVESGGGLVQAGGSLRLSCAASGFTFYAYVMGWYRQAPGKERELVAAISGSGTSTYYADSVKGRFTISRDNAKNTVYLQMNSLKPEDTAVYYCAADYYPWDLDDDYWGQGTQVTVSS | high polyreactivity
30 | QVQLVESGVGLLQAGGILRISCASSGITFAWYAMVRYRQAPGKERELVAAIDDRGGSTYYADSVKGRFTISRDNAKNTVYFQMNSLKPEDTAVFYCNADTPSYEPYRLDYWGHGTQVTVSS | low polyreactivity
31 | QVQLVESGGGLVQAGGSLRLSCAASGRLFKRYNMGWYRQGPGKDRELVAAIRSGGSTNYADSVKGRFTISRDNAKNTVYLPMNSLKPEDTAVYYCAARSTAYRGGSYAYDYWGQGTQVTVSS | high polyreactivity
32 | QVQLVESGGGLVQAGGSLRLSCDASGFTFATYAMGRYRQAPGKERELVAAISSGGYTYYADSVKGRFTISRDNAKNTVYLQMNSLKPEDTGVYYCNVSIGLFYLWYFNRYYYWGQGTQVTVSS | high polyreactivity
33 | QVQLVESGGGLVQAGGSLRLSCAASGIIFTDTAMGGYTQPPGKVRELVATISWSTDNTYYADSVKGRFTISRDNAKNTVYLQMNSLKPEDTAVYYCAAEEFYAYWYQSDYWGQGTQVTVSS | low polyreactivity
34 | QEQLQESGSGLVQAGGSLRLSCAASGNIFQDWVMAWYRQAPGKERELVAAISPGAITYYADSVKGRFTISRDNAKNTVYLQTNSLKPEDTAVYYCAAYYIVEYLHGYWGQGTRVTVSS | low polyreactivity
35 | QVQHVESGGGLVQAGGSLRLSCAASGSIFASYAMGWYRLAAGKERELVAAISRRAVLTYYADSVKGRFTISRDNPKNTVYLQMNSLKPEDTAVYFCNARGYSGYQRYGYNYWGQGTQVTVSS | high polyreactivity
36 | QVQLVESGGGLVQAGGSLRLSCAASGFTFRLYVMGWYIQAPGKERELVAAISSRGGSTYYADSLKGRFTISRDNAKNTVNLQMNSLKPEDTAVYYCAADRPRGRETVDYWGQGTQVTVSS | high polyreactivity
37 | QVHLVESGGGLVQAGGSLRLSCAASGRIFTYYAMAWYRQAPGKEREMVAGITGSGASTYYADSVKGRFTISRDNAKNTVYLQMNSLKPEDTAVYYCNAPYVIRPFRGRYDYWGQGTQVTVSS | high polyreactivity
38 | QVQLVESGGRLVQERGSLRLSCAASGFIFGRYAMGWYIQAPGKERELVAAITQSGGSTYYADSVKGRFTISRDNAKNTVYVQMNCLNPEDTAVYYCIAPIAYWRVHYKYGYWGQGTQVTVSS | low polyreactivity
39 | QVQLVESGGALVQAGGSLRLSCAASGRTFAVNAMGWYRQAPGKEREFVAAISKRGGSTYYADSVKGRFTISRDNAKNTVYLQMNSLTPEDTAVYYCAADYTKHYWGQGTQVTVSS | high polyreactivity
40 | QVQLVESGGALDQAGGSLRLSCAASGSTFISNAMGWYRQAPGKERELVAAISSGGGRTSYADSVKGRFTISRDNANNTVYLQMNSLKPEDTAVYYCNTKKLPYAEGYWGQGTQVTVSS | low polyreactivity
41 | QVQLVESGGGLVQAGGSLRLSCDASGGTFVHNAMGWYRQAPGKERELVAAISWSGGSTYYADSVKGRFTISRDNATNTVYLQMNSLKPEDTAVNYCAADLPDYKDIFDSWGQGTQVTLSS | low polyreactivity
42 | QVQLVESGGGLVQAGGSLRLSCAASGRIFPYYAIGWYRQAPGKERELVASTNYADSVKGRFTISRDNAKNTVYLQMNSLKPEDTAVYYCNADSVYPPGSDYVVRDGNFDYWGQGTQVTVSS | low polyreactivity
43 | QVQVVESGGGLVQAGGSLRLRCAASGSIIKYYAMGWYREAPGKERELVADISWRGGRTYADSVKGRFTISRDNAKNTVYLQMNCLIPEDTAVYYCAKPSKARGGYDYWGQGTQVTVSS | high polyreactivity

Reference: the nanobody polyreactivity screen of Harvey et al. (2022)
